How the values were obtained:
cytokeratin protein [1] = assay: cytokeratin immunocytochemistry (CAM5.2-FITC) on fixed TSU-PRI cells; percent of cells stained
cytokeratin protein [2] = assay: cytokeratin immunocytochemistry (CAM5.2-FITC) on fixed DUMS cells; percent of cells stained
cytokeratin protein [3] = assay: cytokeratin immunocytochemistry (CAM5.2-FITC) on fixed LNCaP cells; percent of cells stained
cytokeratin protein [4] = assay: cytokeratin immunocytochemistry (CAM5.2-FITC) on fixed PC-3 cells; percent of cells stained

Percentage of positive staining (cytokeratin protein [1]): 100%
Percentage of positive staining (cytokeratin protein [2]): 100%
Percentage of positive staining (cytokeratin protein [3]): 100%
Percentage of positive staining (cytokeratin protein [4]): 100%
Substance: FITC conjugated Anti-Cytokeratin (CAM5.2) monoclonal antibody (Becton-Dickinson, Cat. 347653)

— patent US20030119077A1
